In patent US20230192831A1:
Numbering of substitutions follows the chain as printed.

B1: H4H2895N (antibody, human IgG4, V domains shown)
VH: EVQLVESGGGLVQPGGSLRLSCAASGFTVSSNYMSWVRQAPGKGLEWVSVIYSGGNTYYADSVKGRFTISRHNSKNTLYLQMNSLRAEDTAVYYCARDLGIKSDYWGQGTLVTVSS
VL: EIVLTQSPDFQSVTPKEKVTITCRASQSIGTTLHWYQQKPDQSPKLLIKYVSQSLSGVPSRFSGSGSGTDFTLTINSLEAEDAATYYCHQSSSLPWTFGQGTKVEIK
B2: H4H2889N (antibody, human IgG4, V domains shown)
VH: QVQLQESGPGLVKPSETLSLTCTVSGGSISNSYWSWIRQPPGKGLEWIGYIYYSGNTNYNPSLKSRVTISVDTSKNQFSLKLSSVTAADTAVYYCARVNDYSNYDSYYYGMDVWGQGTTVTVSS
VL: AIQMTQSPSSLSASVGDRVTITCRASQGIRNDLGWYQQKPGKAPKLLIYAASSLQSGVPSRFSGSGSGTDFTLTISSLQPEDFATYYCLQDYNYPPTFGQGTKVDIK
B3: H4H6246P (antibody, human IgG4, V domains shown)
VH: QVQLVESGGGVVQPGRSLRLSCAASGFTFSSYGMHWVRQAPGKGLEWVAIIWYDGSNRYYADSVKGRFTISRDNSRNTLYLQMNSLRAEDTAVYYCARDEYGDYDYPFDYWGQGTLVTVSS
VL: DIQMTQSPSSLSASVGDRVTITCRASQGIRNDLGWFQQKPGKAPKRLIYAASSLQSGVPSRFSGSGSGTEFTLTISSLQPEDFATYYCLQHNTYPPFTFGPGTKVDIK
B4: H4H6232P (antibody, human IgG4, V domains shown)
VH: QVQLVQSGAEVKKPGASVKVSCKVSGYTLTELSMHWVRQAPGKGLEWMGGFDPEDGETIYAQKFQGRLTMTEDTSTDTAYMELSSLRSEDTAVYYCATDDYDILTSYPYNMDVWGQGTTVTVSS
VL: DIQMTQSPSSLSASVGDRVTITCRASQSINNYLNWYQQKPGKAPKLLIYAASSLQSGVPSRFSGSGSGTDFTLTISSLQPEDFGTYYCQQSDSTPFTFGPGTKVDIK
B5: H4H6243P (antibody, human IgG4, V domains shown)
VH: B4 VH with G66D, L68V, A97V, D102E, T105P, S106E
VL: B4 VL with N30S, N31T, S76R, G84A, D92H, S93I
B6: H4H2892N (antibody, human IgG4, V domains shown)
VH: QVQLVESGGGVVQPGRSLRLSCAASGFTFSSYGIHWVRQAPGKGLEWVAILWYDGSNKYYADSVKGRFTISRDNSKTTLYLQMNSLRAEDTAVYYCARENYNDLNFDLWGRGTLVTVSS
VL: DIQLTQSPSFLSASVGDRVTITCWASQGISSYLAWYQHKPGKAPKLLIYAASTLQSGVPSRFSGSGSGIEFTLTISSLQPEDFATYYCQQLKSYPPWTFGQGTKVEIR
B7: H4H2783N2 (antibody, human IgG4, V domains shown)
VH: EVQLLESGGGLVQPGGSLRLSCAASGFTFSSYVMNWVRQAPGKGLEWVSAISGSGGSTYYADSVKGRSTISRDNSKNTLYLQMNSLRAEDTAIYYCAKGDIAAIVFDAFDIWGQGTVVTVSS
VL: DIQMTQSPSSLSASVGDRVTITCQASQDISSALNWYQHKPGKAPKLLIYDASYLETGVPSRFSGSGSGTDFTFTISSLQPEDIATYYCQQYDNLPYTFGQGTKLEIK
B8: H4H6245P (antibody, human IgG4, V domains shown)
VH: EVQLVESGGGLVQPGGSLRLSCAASGFTFNSFWMSWVRQAPGKGLEWVANIKQDGSEKYYVDSVKGRFTISRDNAKNSVYLQMNSLRAEDTAVYYCARDLVTSFDYWGQGTLVTVSS
VL: B7 VL with S30N, S31N, A32Y, H38Q, R61G, N93S
B9: H4H6240P (antibody, human IgG4, V domains shown)
VH: QVQLVESGGGVVQPGRSLRLSCAASGFTFSSYGMHWVRQAPGKGLEWVAVIWYDGSNKYYADSVKGRFIISRDNSKNMMYLQMNSLRAEDTAVYYCAREDNWNYAFDYWGQGTLVTVSS
VL: EIVMTQSPATLSVSPGERATLSCRASQSISSNLAWYQQKPGQAPRLLIYDSSTRATGIPARFSGSGSGTQFTLTISSLQSEDFALYYCQQYSNWPPFTFGPGTKVDIK
B10: H4H2926N (antibody, human IgG4, V domains shown)
VH: EVQLVESGGGLVQTGRSLRLSCAASGFTFDDYAMNWVRQAPGKGLEWVSGISWNSGNIGYADSVKGRFTISRDNAKNSLYLQMNSLRAEDTALYYCVKYIGQQLVQDYFDYWGQGTLVTVSS
VL: DIQMTQSPSSLSASVGDRVTITCQASQDITNYLNWYQQRPGKAPKLLIYDAFNLERGVPSRFSGSGYGTYFTFTISSLQPEDIAIYYCQQYDNLPLTFGGGTKVEIE
B11: H4H2780N (antibody, human IgG4, V domains shown)
VH: EVQLVESGGGLVKPGGSLRLSCAASGFTFSTYSMNWVRQAPGKGLEWVSSISSGSSYIYYTDSVKGRFTISRDNAKNSLYLQMNSLRAEDTAVYYCARFGSYYYFGFDVWGQGTTVTVSS
VL: DIQMTQSPSSLSASVGDRVTITCRASQGISNYLAWYQQKPGKVPKLLIFSASTLQSGVPSRFSGSGSGPDFTLTVSSLQPEDVATYYCQKYNSAPFAFGPGTKVDIK
B12: H4H6269P (antibody, human IgG4, V domains shown)
VH: QVQLQESGPGLVKPSQTLSLTCTVSGGSISSGGYYWTWIRQHPGKGLEWIGYIYYSGSTYYNPSLKSRVTMSVDTSKNQFSLKLSSVTAADTAVYYCARLLDFDYWGQGTLVTVSS
VL: B2 VL with T69R, T85S, Y92H, P96L, Q100G, D105E

Each binder was assayed against recombinant human GREM1 (hGREM1-His; C-terminal 10His tagged, R&D, #5190-GR) (human) (UniProt O60565) (assay: cell-based or functional assay).
Sequence of recombinant human GREM1 (hGREM1-His; C-terminal 10His tagged, R&D, #5190-GR) (human) (O60565 other isoform, or with tags, fused parts or gaps limits assumed, form in doubt): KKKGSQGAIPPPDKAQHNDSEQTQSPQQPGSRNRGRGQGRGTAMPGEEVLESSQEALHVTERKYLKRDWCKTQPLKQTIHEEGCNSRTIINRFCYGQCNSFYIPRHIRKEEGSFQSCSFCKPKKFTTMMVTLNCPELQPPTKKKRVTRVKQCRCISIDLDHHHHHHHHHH

Going from B1 to B2, the IC50 [M], W-20-17/BRE-luc luciferase bioassay, 100 pM hBMP4 and 10 nM hGREM1-His rises from 5.8e-10 M to 1.2e-09 M.

Compared with B3, B4 is higher in IC50 [M], W-20-17/BRE-luc luciferase bioassay, 100 pM hBMP4 and 10 nM hGREM1-His: 5.6e-10 M for the first, 7.8e-10 M for the second.

Going from B5 to B6, the IC50 [M], W-20-17/BRE-luc luciferase bioassay, 100 pM hBMP4 and 10 nM hGREM1-His rises from 5.4e-10 M to 9.5e-10 M.

First: B7
Second: B8
The IC50 [M], W-20-17/BRE-luc luciferase bioassay, 100 pM hBMP4 and 10 nM hGREM1-His of the first is higher: 1.3e-09 M for the first, 5.3e-10 M for the second.

Going from B9 to B10, the IC50 [M], W-20-17/BRE-luc luciferase bioassay, 100 pM hBMP4 and 10 nM hGREM1-His rises from 8.1e-10 M to 1.2e-09 M.

Going from B1 to B2, the hGREM1-His Inhibition IC50, M; W-20-17 cell differentiation assay (alkaline phosphatase) rises from 1.9 nM to 5.4 nM (2.8-fold).

B3 and B4 are within 1.5-fold of each other in hGREM1-His Inhibition IC50, M; W-20-17 cell differentiation assay (alkaline phosphatase): 6.2 nM for the first, 4.5 nM for the second.

B5 and B6 are within 1.5-fold of each other in hGREM1-His Inhibition IC50, M; W-20-17 cell differentiation assay (alkaline phosphatase): 5.9 nM for the first, 4.4 nM for the second.

B7 and B8 are within 1.5-fold of each other in hGREM1-His Inhibition IC50, M; W-20-17 cell differentiation assay (alkaline phosphatase): 5.6 nM for the first, 6.1 nM for the second.

First: B9
Second: B10
The hGREM1-His Inhibition IC50, M; W-20-17 cell differentiation assay (alkaline phosphatase) of the first is 1.7-fold lower: 7.8 nM for the first, 13 nM for the second.

B11 showed an IC50 [M], W-20-17/BRE-luc luciferase bioassay, 100 pM hBMP4 and 10 nM hGREM1-His of 49.

What follows are binders tested against recombinant human GREM1 (hGREM1-His; C-terminal 10His tagged, R&D, #5190-GR) (human) (UniProt O60565) (assay: BLI Octet, captured mAb, 100 nM GREM1).

Compared with B1, B2 is higher in Binding Signal with 30 sec Association (nm): 0.15 nm for the first, 0.2 nm for the second.

Compared with B12, B3 is higher in Binding Signal with 30 sec Association (nm): 0.15 nm for the first, 0.19 nm for the second.

First: B4
Second: B5
The Binding Signal with 30 sec Association (nm) of the first is higher: 0.33 nm for the first, 0.3 nm for the second.

Going from B6 to B7, the Binding Signal with 30 sec Association (nm) rises from 0.2 nm to 0.29 nm.

B8 and B9 are the same in Binding Signal with 30 sec Association (nm): 0.23 nm for the first, 0.23 nm for the second.

Going from B10 to B11, the Binding Signal with 30 sec Association (nm) falls from 0.23 nm to 0.13 nm.

Going from B1 to B2, the Binding Signal with 300 sec Association (nm) falls from 0.5 nm to 0.46 nm.

Going from B12 to B3, the Binding Signal with 300 sec Association (nm) falls from 0.6 nm to 0.38 nm.

First: B4
Second: B5
The Binding Signal with 300 sec Association (nm) of the first is higher: 0.48 nm for the first, 0.47 nm for the second.

Going from B6 to B7, the Binding Signal with 300 sec Association (nm) falls from 0.49 nm to 0.47 nm.

Going from B8 to B9, the Binding Signal with 300 sec Association (nm) rises from 0.41 nm to 0.53 nm.

Compared with B10, B11 is higher in Binding Signal with 300 sec Association (nm): 0.49 nm for the first, 0.58 nm for the second.

The binders below were run against recombinant human GREM1 (hGREM1-His; C-terminal 10His tagged, R&D, #5190-GR) (human) (UniProt O60565) (assay: BLI Octet, captured mAb, 100 nM GREM1 + 5 uM heparin).

Going from B1 to B2, the Binding Signal with 30 sec Association (nm) falls from 0.22 nm to 0.05 nm.

First: B12
Second: B3
The Binding Signal with 30 sec Association (nm) of the first is higher: 0.14 nm for the first, 0.06 nm for the second.

Going from B4 to B5, the Binding Signal with 30 sec Association (nm) falls from 0.06 nm to 0 nm.

Compared with B6, B7 is lower in Binding Signal with 30 sec Association (nm): 0.15 nm for the first, 0.01 nm for the second.

Compared with B8, B9 is higher in Binding Signal with 30 sec Association (nm): 0.02 nm for the first, 0.05 nm for the second.

Going from B10 to B11, the Binding Signal with 30 sec Association (nm) rises from 0.07 nm to 0.13 nm.

First: B1
Second: B2
The Binding Signal with 300 sec Association (nm) of the first is higher: 0.54 nm for the first, 0.44 nm for the second.

Compared with B12, B3 is lower in Binding Signal with 300 sec Association (nm): 0.52 nm for the first, 0.34 nm for the second.

First: B4
Second: B5
The Binding Signal with 300 sec Association (nm) of the first is higher: 0.46 nm for the first, 0.21 nm for the second.

Going from B6 to B7, the Binding Signal with 300 sec Association (nm) falls from 0.49 nm to 0.29 nm.

Compared with B8, B9 is higher in Binding Signal with 300 sec Association (nm): 0.22 nm for the first, 0.37 nm for the second.

Going from B10 to B11, the Binding Signal with 300 sec Association (nm) rises from 0.42 nm to 0.58 nm.

These binders were tested against recombinant human GREM1 (hGREM1-His; C-terminal 10His tagged, R&D, #5190-GR) (human) (UniProt O60565) (assay: BLI Octet, captured mAb, 100 nM GREM1 without vs with 5 uM heparin).

First: B1
Second: B2
The Reduction in Signal from Heparin at 30 sec of the first is lower: -0.07 nm for the first, 0.15 nm for the second.

First: B12
Second: B3
The Reduction in Signal from Heparin at 30 sec of the first is lower: 0.01 nm for the first, 0.13 nm for the second.

First: B4
Second: B5
The Reduction in Signal from Heparin at 30 sec of the first is lower: 0.27 nm for the first, 0.3 nm for the second.

Going from B6 to B7, the Reduction in Signal from Heparin at 30 sec rises from 0.05 nm to 0.28 nm.

First: B8
Second: B9
The Reduction in Signal from Heparin at 30 sec of the first is higher: 0.21 nm for the first, 0.18 nm for the second.

Going from B10 to B11, the Reduction in Signal from Heparin at 30 sec falls from 0.16 nm to 0 nm.

Compared with B1, B2 is higher in Reduction in Signal from Heparin at 300 sec: -0.04 nm for the first, 0.02 nm for the second.

First: B12
Second: B3
The Reduction in Signal from Heparin at 300 sec of the first is higher: 0.08 nm for the first, 0.04 nm for the second.

Going from B4 to B5, the Reduction in Signal from Heparin at 300 sec rises from 0.02 nm to 0.26 nm.

Going from B6 to B7, the Reduction in Signal from Heparin at 300 sec rises from 0 nm to 0.18 nm.

Compared with B8, B9 is lower in Reduction in Signal from Heparin at 300 sec: 0.19 nm for the first, 0.16 nm for the second.

First: B10
Second: B11
The Reduction in Signal from Heparin at 300 sec of the first is higher: 0.07 nm for the first, 0 nm for the second.
